Drawing on patent US20240082414A1, “HUMAN TUMOR NECROSIS FACTOR ALPHA ANTIBODY GLUCOCORTICOID CONJUGATES” (Eli Lilly and Company, priority 2022, published 2024), this text covers Kd for one substance.

Assay [1] has as its target human FcγRI (CD64) extracellular domain (human) (UniProt P12314). In words: SPR (Biacore), antibody captured on Protein A, FcγR ECD as analyte, 25° C. For orientation: SPR reads the build-up and loss of mass on a sensor chip optically.
Assay [2] addresses human FcγRIIA_131H (CD32a) extracellular domain (human) (UniProt P12318). In words: SPR (Biacore), antibody captured on Protein A, FcγR ECD as analyte, steady state, 25° C.
Assay [3] has as its target human FcγRIIA_131R (CD32a) extracellular domain (human) (UniProt P12318). The description is as above.
For assay [4], the target named is human FcγRIIIA_158F (CD16a) extracellular domain (human) (UniProt P08637). Described as above.
Chain of human FcγRIIIA_158F (CD16a) extracellular domain (human) (P08637 17-208): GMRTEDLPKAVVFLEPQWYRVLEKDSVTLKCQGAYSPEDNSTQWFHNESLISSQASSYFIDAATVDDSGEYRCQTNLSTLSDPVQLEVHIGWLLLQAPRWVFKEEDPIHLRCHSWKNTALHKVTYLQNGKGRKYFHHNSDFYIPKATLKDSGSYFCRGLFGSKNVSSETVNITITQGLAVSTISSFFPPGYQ
Assay [5] addresses human FcγRIIb (CD32b) extracellular domain (human) (UniProt P31994). Described as above.

pKd: −log10 of the molar value.

Chain of human FcγRIIA_131H (CD32a) extracellular domain (human) (P12318 34-217): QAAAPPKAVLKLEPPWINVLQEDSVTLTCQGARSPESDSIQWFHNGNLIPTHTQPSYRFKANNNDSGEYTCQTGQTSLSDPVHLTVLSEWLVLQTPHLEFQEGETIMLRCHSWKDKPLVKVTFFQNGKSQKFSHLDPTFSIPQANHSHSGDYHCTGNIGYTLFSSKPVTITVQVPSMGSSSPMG
Chain of human FcγRI (CD64) extracellular domain (human) (P12314 16-292): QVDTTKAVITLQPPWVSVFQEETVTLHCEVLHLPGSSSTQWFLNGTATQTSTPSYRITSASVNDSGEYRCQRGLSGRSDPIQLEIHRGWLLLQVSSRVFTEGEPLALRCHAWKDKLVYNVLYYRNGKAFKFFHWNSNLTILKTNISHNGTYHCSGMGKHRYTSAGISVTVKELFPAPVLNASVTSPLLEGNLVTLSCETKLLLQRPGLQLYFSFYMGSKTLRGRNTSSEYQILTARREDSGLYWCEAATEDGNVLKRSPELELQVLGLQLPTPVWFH
Chain of human FcγRIIb (CD32b) extracellular domain (human) (P31994 43-217): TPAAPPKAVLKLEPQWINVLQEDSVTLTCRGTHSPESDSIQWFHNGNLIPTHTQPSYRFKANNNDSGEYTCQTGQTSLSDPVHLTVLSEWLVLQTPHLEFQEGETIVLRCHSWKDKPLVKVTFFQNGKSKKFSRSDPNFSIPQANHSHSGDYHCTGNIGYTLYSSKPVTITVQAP
Chain of human FcγRIIA_131R (CD32a) extracellular domain (human) (P12318 34-217 H167R limits assumed): as the sequence (P12318 34-217) above, with H134R counted along it

A word on the pKd: it is −log10 of the Kd, conventionally taken in molar units. A higher pKd goes with a small Kd. For the substance human IgG1 isotype control antibody, the pKd in assay [1] was 10.32; in assay [2], 6.24; in assay [3], 6.24; in assay [4], 6.09; in assay [5] it was 5.55.
